Measured values as given in article PMC3975686 (Journal of proteome research, 2013).

B1: human Cdc42C188S, GDP-bound (natural protein)
chain: not shown
B2: IQGAP1 Repeats (IQGAP1 residues 156-672), tag removed (domain or fragment, human, UniProt P46940 156-672, looked up)
chain: SLYLFKLGLAPQIQDLYGKVDFTEEEINNMKTELEKYGIQMPAFSKIGGILANELSVDEAALHAAVIAINEAIDRRIPADTFAALKNPNAMLVNLEEPLASTYQDILYQAKQDKMTNAKNRTENSERERDVYEELLTQAEIQGNINKVNTFSALANIDLALEQGDALALFRALQSPALGLRGLQQQNSDWYLKQLLSDKQQKRQSGQTDPLQKEELQSGVDAANSAAQQYQRRLAAVALINAAIQKGVAEKTVLELMNPEAQLPQVYPFAADLYQKELATLQRQSPEHNLTHPELSVAVEMLSSVALINRALESGDVNTVWKQLSSSVTGLTNIEEENCQRYLDELMKLKAQAHAENNEFITWNDIQACVDHVNLVVQEEHERILAIGLINEALDEGDAQKTLQALQIPAAKLEGVLAEVAQHYQDTLIRAKREKAQEIQDESAVLWLDEIQGGIWQSNKDTQEAQKFALGIFAINEAVESGDVGKTLSALRSPDVGLYGVIPECGETYHSDLAEAK
B3: IQGAP2 Repeats (IQGAP2 residues 211-591) (domain or fragment, human, UniProt Q13576 211-591, looked up)
chain: EAALHAAVIAINEAVEKGIAEQTVVTLRNPNAVLTLVDDNLAPEYQKELWDAKKKKEENARLKNSCISEEERDAYEELLTQAEIQGNINKVNRQAAVDHINAVIPEGDPENTLLALKKPEAQLPAVYPFAAAMYQNELFNLQKQNTMNYLAHEELLIAVEMLSAVALLNQALESNDLVSVQNQLRSPAIGLNNLDKAYVERYANTLLSVKLEVLSQGQDNLSWNEIQNCIDMVNAQIQEENDRVVAVGYINEAIDEGNPLRTLETLLLPTANISDVDPAHAQHYQDVLYHAKSQKLGDSESVSKVLWLDEIQQAVDDANVDKDRAKQWVTLVVDVNQCLEGKKSSDILSVLKSSTSNANDIIPECADKYYDALVKAKELKS
B4: ezrin C-terminal fragment (residues 477-586) (domain or fragment, human, UniProt P15311 477-586, looked up)
chain: VYEPVSYHVQESLQDEGAEPTGYSAELSSEGIRDDRNEEKRITEAEKNERVQRQLLTLSSELSQARDENKRTHNDIIHNENMRQGRDKYKTLRQIRQGNTKQRIDEFEAL

What was measured:
Test in all cases: ITC
[1] = biological target: T1, human RhoGDI (human, UniProt P52565 1-204)
T1 sequence (looked up): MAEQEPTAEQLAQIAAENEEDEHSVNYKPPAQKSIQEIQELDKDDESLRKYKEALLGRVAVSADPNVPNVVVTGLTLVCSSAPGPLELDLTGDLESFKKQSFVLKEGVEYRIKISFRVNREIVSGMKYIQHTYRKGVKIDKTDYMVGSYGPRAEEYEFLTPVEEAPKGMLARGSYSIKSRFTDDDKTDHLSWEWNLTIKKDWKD

[2] = biological target: T2, ezrin FERM domain (residues 1-297) (human, UniProt P15311 1-297)
T2 sequence (P15311 1-297): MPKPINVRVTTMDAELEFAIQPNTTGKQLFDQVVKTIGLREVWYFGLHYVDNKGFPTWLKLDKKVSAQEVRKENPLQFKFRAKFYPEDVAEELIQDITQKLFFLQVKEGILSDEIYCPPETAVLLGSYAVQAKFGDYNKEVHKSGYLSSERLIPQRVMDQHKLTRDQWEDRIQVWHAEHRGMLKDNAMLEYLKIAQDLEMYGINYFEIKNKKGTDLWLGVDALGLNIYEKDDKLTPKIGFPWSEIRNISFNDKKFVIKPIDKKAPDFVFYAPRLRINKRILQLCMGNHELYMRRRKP

[3] = biological target: T2, ezrin FERM domain (residues 1-297); remark: listed apart in the source

Row | Binder | dH [2] | stoichiometry N [2] | other results
1 | B1 |  |  | Ka [1]: 55700 ± 940 M⁻¹; dH [1]: -13.29 ± 0.08 kcal/mol; stoichiometry N [1]: 0.853 ± 0.0003
2 | B2 | -49.1 ± 15.6 kcal/mol | 0.274 ± 0.0243 | 
3 | B3 | -3.98 ± 0.39 kcal/mol | 1.33 ± 0.0688 | 
4 | B4 |  |  | Ka [3]: 1.13e+06 M⁻¹
